Results reported in the Human Domainome abundance scans (Beltran et al. 2025).
± gives the uncertainty stated by the source.

B1: Steroid hormone receptor ERR2, residues 100 to 176; numbered along this chain, O95718 (parent)
chain: KRLCLVCGDIASGYHYGVASCEACKAFFKRTIQGNIEYSCPATNECEITKRRRKSCQACRFMKCLKVGMLKEGVRLD

Variants of: B1
Assay: abundance fitness (aPCA) (normalised: wild type 0, dead -1); higher = more abundant; growth selection in yeast, the domain comes from the species named
Conditions: Homo sapiens
In the case of KRLCLVCGDIASGYHYGVASCEACKAFFKRTIQGNIEYSCPATNECEITKRRRKSCQAVRFMKCLKVGMLKEGVRLD [C59V], the abundance fitness is reported as -0.576 ± 0.066.
Variant KRLCLVCGDIASGYHYGVASCEACKAFFKRTIQGNIEYSCPATNECEITKRRRKSCQAQRFMKCLKVGMLKEGVRLD [C59Q] has an abundance fitness of -0.891 ± 0.22.
KRLCLVCGDIASGYHYGVASCEACKAFFKRTIQGNIEYSCPATNECEITKRRRKSCQAWRFMKCLKVGMLKEGVRLD [C59W] showed an abundance fitness of -0.684 ± 0.11.
For KRLCLVCGDIASGYHYGVASCEACKAFFKRTIQGNIEYSCPATNECEITKRRRKSCQASRFMKCLKVGMLKEGVRLD [C59S], the abundance fitness was -0.887 ± 0.13.
For KRLCLVCGDIASGYHYGVASCEACKAFFKRTIQGNIEYSCPATNECEITKRRRKSCQARRFMKCLKVGMLKEGVRLD [C59R], the abundance fitness was -0.755 ± 0.074.
Work on KRLCLVCGDIASGYHYGVASCEACKAFFKRTIQGNIEYSCPATNECEITKRRRKSCQATRFMKCLKVGMLKEGVRLD [C59T] yielded an abundance fitness of -0.872 ± 0.15.
KRLCLVCGDIASGYHYGVASCEACKAFFKRTIQGNIEYSCPATNECEITKRRRKSCQAYRFMKCLKVGMLKEGVRLD [C59Y] showed an abundance fitness of -0.745 ± 0.27.
With KRLCLVCGDIASGYHYGVASCEACKAFFKRTIQGNIEYSCPATNECEITKRRRKSCQACRNMKCLKVGMLKEGVRLD [F61N] the abundance fitness was -0.541 ± 0.3.
KRLCLVCGDIASGYHYGVASCEACKAFFKRTIQGNIEYSCPATNECEITKRRRKSCQACRQMKCLKVGMLKEGVRLD [F61Q] showed an abundance fitness of -0.257 ± 0.096.
For KRLCLVCGDIASGYHYGVASCEACKAFFKRTIQGNIEYSCPATNECEITKRRRKSCQACRPMKCLKVGMLKEGVRLD [F61P], the abundance fitness was -1.29 ± 0.38.
For KRLCLVCGDIASGYHYGVASCEACKAFFKRTIQGNIEYSCPATNECEITKRRRKSCQACRTMKCLKVGMLKEGVRLD [F61T], the abundance fitness was -0.759 ± 0.15.
KRLCLVCGDIASGYHYGVASCEACKAFFKRTIQGNIEYSCPATNECEITKRRRKSCQACRKMKCLKVGMLKEGVRLD [F61K] gave an abundance fitness of -0.266 ± 0.089.
Work on KRLCLVCGDIASGYHYGVASCEACKAFFKRTIQGNIEYSCPATNECEITKRRRKSCQACRIMKCLKVGMLKEGVRLD [F61I] yielded an abundance fitness of -0.074 ± 0.088.
With KRLCLVCGDIASGYHYGVASCEACKAFFKRTIQGNIEYSCPATNECEITKRRRKSCQACRAMKCLKVGMLKEGVRLD [F61A] the abundance fitness was -0.444 ± 0.077.
KRLCLVCGDIASGYHYGVASCEACKAFFKRTIQGNIEYSCPATNECEITKRRRKSCQACRCMKCLKVGMLKEGVRLD [F61C] gave an abundance fitness of -1.06 ± 0.26.
With KRLCLVCGDIASGYHYGVASCEACKAFFKRTIQGNIEYSCPATNECEITKRRRKSCQACRMMKCLKVGMLKEGVRLD [F61M] the abundance fitness was 0 ± 0.063.
For KRLCLVCGDIASGYHYGVASCEACKAFFKRTIQGNIEYSCPATNECEITKRRRKSCQACRGMKCLKVGMLKEGVRLD [F61G], the abundance fitness was -0.602 ± 0.056.
In the case of KRLCLVCGDIASGYHYGVASCEACKAFFKRTIQGNIEYSCPATNECEITKRRRKSCQACRRMKCLKVGMLKEGVRLD [F61R], the abundance fitness is reported as -0.487 ± 0.054.
With KRLCLVCGDIASGYHYGVASCEACKAFFKRTIQGNIEYSCPATNECEITKRRRKSCQACRSMKCLKVGMLKEGVRLD [F61S] the abundance fitness was -0.509 ± 0.088.
With KRLCLVCGDIASGYHYGVASCEACKAFFKRTIQGNIEYSCPATNECEITKRRRKSCQACREMKCLKVGMLKEGVRLD [F61E] the abundance fitness was -0.892 ± 0.17.
KRLCLVCGDIASGYHYGVASCEACKAFFKRTIQGNIEYSCPATNECEITKRRRKSCQACRDMKCLKVGMLKEGVRLD [F61D] gave an abundance fitness of -1.06 ± 0.32.
Variant KRLCLVCGDIASGYHYGVASCEACKAFFKRTIQGNIEYSCPATNECEITKRRRKSCQACCFMKCLKVGMLKEGVRLD [R60C] has an abundance fitness of 0.013 ± 0.066.
KRLCLVCGDIASGYHYGVASCEACKAFFKRTIQGNIEYSCPATNECEITKRRRKSCQACIFMKCLKVGMLKEGVRLD [R60I] gave an abundance fitness of -0.23 ± 0.11.
KRLCLVCGDIASGYHYGVASCEACKAFFKRTIQGNIEYSCPATNECEITKRRRKSCQACMFMKCLKVGMLKEGVRLD [R60M] showed an abundance fitness of 0.108 ± 0.05.
KRLCLVCGDIASGYHYGVASCEACKAFFKRTIQGNIEYSCPATNECEITKRRRKSCQACDFMKCLKVGMLKEGVRLD [R60D] gave an abundance fitness of -0.828 ± 0.18.
In the case of KRLCLVCGDIASGYHYGVASCEACKAFFKRTIQGNIEYSCPATNECEITKRRRKSCQACYFMKCLKVGMLKEGVRLD [R60Y], the abundance fitness is reported as 0.279 ± 0.072.
KRLCLVCGDIASGYHYGVASCEACKAFFKRTIQGNIEYSCPATNECEITKRRRKSCQACPFMKCLKVGMLKEGVRLD [R60P] showed an abundance fitness of -0.798 ± 0.15.
KRLCLVCGDIASGYHYGVASCEACKAFFKRTIQGNIEYSCPATNECEITKRRRKSCQACAFMKCLKVGMLKEGVRLD [R60A] gave an abundance fitness of -0.031 ± 0.047.
Variant KRLCLVCGDIASGYHYGVASCEACKAFFKRTIQGNIEYSCPATNECEITKRRRKSCQACEFMKCLKVGMLKEGVRLD [R60E] has an abundance fitness of -0.764 ± 0.1.
Variant KRLCLVCGDIASGYHYGVASCEACKAFFKRTIQGNIEYSCPATNECEITKRRRKSCQACFFMKCLKVGMLKEGVRLD [R60F] has an abundance fitness of 0.211 ± 0.075.
Variant KRLCLVCGDIASGYHYGVASCEACKAFFKRTIQGNIEYSCPATNECEITKRRRKSCQACHFMKCLKVGMLKEGVRLD [R60H] has an abundance fitness of 0.254 ± 0.075.
Variant KRLCLVCGDIASGYHYGVASCEACKAFFKRTIQGNIEYSCPATNECEITKRRRKSCQACQFMKCLKVGMLKEGVRLD [R60Q] has an abundance fitness of 0.173 ± 0.052.
In the case of KRLCLVCGDIASGYHYGVASCEACKAFFKRTIQGNIEYSCPATNECEITKRRRKSCQACVFMKCLKVGMLKEGVRLD [R60V], the abundance fitness is reported as -0.098 ± 0.044.
Variant KRLCLVCGDIASGYHYGVASCEACKAFFKRTIQGNIEYSCPATNECEITKRRRKSCQACKFMKCLKVGMLKEGVRLD [R60K] has an abundance fitness of 0.177 ± 0.055.
KRLCLVCGDIASGYHYGVASCEACKAFFKRTIQGNIEYSCPATNECEITKRRRKSCQACTFMKCLKVGMLKEGVRLD [R60T] showed an abundance fitness of 0.051 ± 0.057.
With KRLCLVCGDIASGYHYGVASCEACKAFFKRTIQGNIEYSCPATNECEITKRRRKSCQACLFMKCLKVGMLKEGVRLD [R60L] the abundance fitness was 0.183 ± 0.042.
